Measurements taken from paper PMC4631893, “Pseudomonas aeruginosa Exopolyphosphatase Is Also a Polyphosphate: ADP Phosphotransferase” (Enzyme Research, 2015).

Key:
paPpx(1–506) = target: T1, paPpx(1–506) (Pseudomonas aeruginosa, UniProt Q9ZN70); conditions: 8 μM polyP65, 5 mM Mg2+, Tris-HCl pH 8.0, 37°C; nonessential activator, sigmoid curve
T1 construct: gene ppx

[1] = test system: Nc1ncnc2c1ncn2[C@@H]1O[C@H](COP(=O)(O)OP(=O)(O)O)[C@@H](O)[C@H]1O; assay: phosphotransferase activity, ATP by luciferin-luciferase; type: biochemical, Pseudomonas aeruginosa; conditions: polyP25 or polyP65 as phosphate donor, 5 mM Mg2+, Tris-HCl pH 8.0, 37°C, one rounded value for both variants and both polyP, data not shown

T1 sequence (Q9ZN70 whole entry): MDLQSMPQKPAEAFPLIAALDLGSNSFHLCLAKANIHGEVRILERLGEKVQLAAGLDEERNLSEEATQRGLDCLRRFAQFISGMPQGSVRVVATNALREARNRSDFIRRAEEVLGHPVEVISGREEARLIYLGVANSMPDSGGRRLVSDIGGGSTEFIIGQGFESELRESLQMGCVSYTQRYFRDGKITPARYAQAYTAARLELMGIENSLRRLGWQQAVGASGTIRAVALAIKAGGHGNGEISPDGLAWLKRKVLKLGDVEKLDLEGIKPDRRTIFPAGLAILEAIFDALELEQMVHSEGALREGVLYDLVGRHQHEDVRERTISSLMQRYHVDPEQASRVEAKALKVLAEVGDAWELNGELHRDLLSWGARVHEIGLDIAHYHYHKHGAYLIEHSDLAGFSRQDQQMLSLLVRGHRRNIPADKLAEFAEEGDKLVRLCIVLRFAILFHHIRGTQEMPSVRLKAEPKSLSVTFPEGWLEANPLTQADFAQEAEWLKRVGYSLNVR

Row | Compound | K 0.5(app)NH4^+ (paPpx(1–506)) | Km [1]
1 | N [NH4^+] | 10 ± 0.4 mM | 
2 | N-paPpx(1–314) (Pseudomonas aeruginosa PAO1) |  | 90 µM
3 | paPpx(1–506) (Pseudomonas aeruginosa PAO1) |  | 90 µM
